Assay results reported in US5736143, “Anti-inflammatory, tolerogenic and immunoinhibiting properties of carbohydrate binding-peptides” (Alberta Research Council, dated 1998).
No end group written: not given here. *: point of attachment. Biotin = O=C1N[C@H]2[C@H](CS[C@H]2CCCCC(=O)*)N1

B1: fetuin (other)
chain: IPLDPVAGYKEPACDDPDTEQAALAAVDYINKHLPRGYKHTLNQIDSVKVWPRRPTGEVYDIEIDTLETTCHVLDPTPLANCSVRQQTQHAVEGDCDIHVLKQDGQFSVLFTKCDSSPDSAEDVRKLCPDCPLLAPLNDSRVVHAVEVALATFNAESNGSYLQLVEISRAQFVPLPVSVSVEFAVAATDCIAKEVVDPTKCNLLAEKQYGFCKGSVIQKALGGEDVRVTCTLFQTQPVIPQPQPDGAEAEAPSAVPDAAGPTPSAAGPPVASVVVGPSVVAVPLPLHRAHYDLRHTFSGVASVESSSGEAFHVGKTPIVGQPSIPGGPVRLCPGRIRYFKI
modifications: sialylated glycans (multiple copies of the αNeu5Ac(2→3)βGal(1→4)βGlc- structure)

Assays:
[1] = biological target: pertussis toxin (Bordetella pertussis) (UniProt P04977)
[2] = biological target: fetuin (Bos taurus (Bovine)) (UniProt P12763); assay: inhibition ELISA; competitor SNA-biotin on coated fetuin; peptide 4.4 mg/mL
[3] = biological target: fetuin (Bos taurus (Bovine)) (UniProt P12763); assay: inhibition ELISA; competitor MAL-biotin on coated fetuin; peptide 4.4 mg/ml (repeats Table II)
[4] = biological target: asialofetuin (Bos taurus (Bovine)) (UniProt P12763); assay: inhibition ELISA; competitor ACS2P1-biotin on coated asialofetuin; peptide 5520 µM
[5] = biological target: fetuin (Bos taurus (Bovine)) (UniProt P12763); assay: inhibition ELISA; competitor WGA-biotin on coated fetuin; peptide 4.4 mg/ml (repeats Table II)
[6] = biological target: asialofetuin (Bos taurus (Bovine)) (UniProt P12763); assay: inhibition ELISA; competitor PT-biotin on coated asialofetuin; peptide 4.4 mg/mL
[7] = biological target: fetuin (Bos taurus (Bovine)) (UniProt P12763); assay: inhibition ELISA; competitor PT-biotin on coated fetuin; peptide 4.4 mg/ml (repeats Table II)
[8] = biological target: fetuin (Bos taurus (Bovine)) (UniProt P12763); assay: inhibition ELISA; competitor PT-biotin on coated fetuin; peptide 4.4 mg/mL
[9] = biological target: fetuin (Bos taurus (Bovine)) (UniProt P12763); assay: inhibition ELISA; competitor ACS2P1-biotin on coated fetuin; peptide 5520 µM
[10] = biological target: fetuin (Bos taurus (Bovine)) (UniProt P12763); assay: inhibition ELISA; competitor SNA-biotin on coated fetuin; peptide 4.4 mg/ml (Table II prints -2 ± 2)
[11] = biological target: fetuin (Bos taurus (Bovine)) (UniProt P12763); assay: inhibition ELISA; competitor WGA-biotin on coated fetuin; peptide 4.4 mg/mL
[12] = biological target: fetuin (Bos taurus (Bovine)) (UniProt P12763); assay: inhibition ELISA; competitor MAL-biotin on coated fetuin; peptide 4.4 mg/mL
[13] = biological target: αNeuAc(2-6)βGal(1-4)βGlcNAc-BSA (bovine) (UniProt P02769); assay: direct ELISA, 0.5 µg biotinylated peptide on BSA conjugate coated at 50 µg/mL
[14] = biological target: αNeuAc(2-3)βGal(1-3)βGlcNAc-BSA (bovine) (UniProt P02769); assay: as above
[15] = biological target: αNeuAc(2-3)βGal(1-3)βGlcNAc-BSA with (1-4) αFuc (bovine) (UniProt P02769); assay: as above
[16] = biological target: αNeuAc(2-3)βGal(1-4)βGlcNAc-BSA with (1-3) αFuc (bovine) (UniProt P02769); assay: as above
[17] = biological target: αNeuAc(2-3)βGal(1-4)βGlcNAc-BSA (bovine) (UniProt P02769); assay: as above
[18] = biological target: fetuin (Bos taurus (Bovine)) (UniProt P12763); assay: inhibition ELISA; competitor PT-biotin on coated fetuin; peptide 1.0 mg/mL
[19] = biological target: fetuin (Bos taurus (Bovine)) (UniProt P12763); assay: inhibition ELISA; competitor SNA-biotin on coated fetuin; peptide 1.0 mg/mL
[20] = biological target: fetuin (Bos taurus (Bovine)) (UniProt P12763); assay: inhibition ELISA; competitor WGA-biotin on coated fetuin
[21] = biological target: fetuin (Bos taurus (Bovine)) (UniProt P12763); assay: inhibition ELISA; competitor MAL-biotin on coated fetuin; peptide 1.0 mg/mL
[22] = biological target: fetuin (Bos taurus (Bovine)) (UniProt P12763); assay: inhibition ELISA; competitor PT-biotin on coated fetuin
[23] = biological target: fetuin (Bos taurus (Bovine)) (UniProt P12763); assay: inhibition ELISA; competitor WGA-biotin on coated fetuin; peptide 1.0 mg/mL
pertussis toxin [24] = biological target: T1, pertussis toxin (Bordetella pertussis, UniProt P04977); assay: cell-based or functional assay
asialofetuin = biological target: T2, asialofetuin (Bos taurus (Bovine), UniProt P12763, glycans without sialic acid (asialo-)); assay: direct ELISA, 10 µg/ml biotinylated peptide on glycoprotein coated at 3 µg/ml
T2 sequence: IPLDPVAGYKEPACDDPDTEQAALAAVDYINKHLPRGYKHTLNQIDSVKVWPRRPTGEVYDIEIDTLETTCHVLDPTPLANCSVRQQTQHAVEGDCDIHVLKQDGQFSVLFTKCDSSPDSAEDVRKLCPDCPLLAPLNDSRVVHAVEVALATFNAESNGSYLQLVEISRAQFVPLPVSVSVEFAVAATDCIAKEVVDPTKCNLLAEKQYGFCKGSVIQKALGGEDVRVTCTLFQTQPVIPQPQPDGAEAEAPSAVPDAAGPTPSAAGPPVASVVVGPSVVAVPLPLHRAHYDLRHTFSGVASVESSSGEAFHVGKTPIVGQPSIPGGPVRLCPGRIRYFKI

asialoagalactofetuin = biological target: T3, asialoagalactofetuin (Bos taurus (Bovine), UniProt P12763, glycans without sialic acid and galactose (asialoagalacto-)); assay: as above
T3 sequence: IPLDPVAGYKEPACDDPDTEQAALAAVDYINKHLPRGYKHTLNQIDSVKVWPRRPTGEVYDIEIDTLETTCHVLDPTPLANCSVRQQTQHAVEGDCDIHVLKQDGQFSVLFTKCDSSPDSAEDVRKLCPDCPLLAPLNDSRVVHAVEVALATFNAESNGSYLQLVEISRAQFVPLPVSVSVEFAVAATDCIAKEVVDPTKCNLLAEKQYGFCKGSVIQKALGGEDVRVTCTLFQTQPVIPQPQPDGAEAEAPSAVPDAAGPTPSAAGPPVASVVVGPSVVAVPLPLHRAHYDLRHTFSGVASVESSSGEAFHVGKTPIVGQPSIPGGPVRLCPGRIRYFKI

[25] = biological target: αNeuAc(2-6)βGal(1-4)βGlcNAc-BSA (bovine, UniProt P02769, conjugated carbohydrate αNeuAc(2-6)βGal(1-4)βGlcNAc-); assay: direct ELISA, 0.1 µg biotinylated peptide on BSA conjugate coated at 50 µg/mL
[26] = biological target: αNeuAc(2-3)βGal(1-4)βGlcNAc-BSA (bovine, UniProt P02769, conjugated carbohydrate αNeuAc(2-3)βGal(1-4)βGlcNAc-); assay: as above
[27] = biological target: αNeuAc(2-3)βGal(1-4)βGlcNAc-BSA with (1-3) αFuc (bovine, UniProt P02769, conjugated carbohydrate αNeuAc(2-3)βGal(1-4)[αFuc(1-3)]βGlcNAc-); assay: as above
[28] = biological target: αNeuAc(2-3)βGal(1-3)βGlcNAc-BSA (bovine, UniProt P02769, conjugated carbohydrate αNeuAc(2-3)βGal(1-3)βGlcNAc-); assay: as above
[29] = biological target: αNeuAc(2-3)βGal(1-3)βGlcNAc-BSA with (1-4) αFuc (bovine, UniProt P02769, conjugated carbohydrate αNeuAc(2-3)βGal(1-3)[αFuc(1-4)]βGlcNAc-); assay: as above
fetuin [30] = biological target: B1; assay: inhibition ELISA; competitor WGA-biotin on coated fetuin
fetuin [31] = biological target: B1; assay: inhibition ELISA; competitor ACS2P1-biotin on coated fetuin; concentration giving -50% (called IC50 in paragraph 228, n=2)
pertussis toxin [32] = biological target: T1, pertussis toxin; assay: inhibition ELISA; fetuin against ACS2P1-biotin on immobilised PT

Molecule SPYGRC (peptide) has a Maximal Inhibitory Concentration for Greater than 50% Inhibition (CHO cell clumping) [1] of 480 pg/mL.

In the case of “SPYGRC (peptide; other documents disagree on this pair)”, the percent change in binding activity [2] is reported as -2%, the % changes in binding activity [3] is reported as -16% and the percent change in binding activity [4] is reported as -54%. It also gave a % changes in binding activity [5] of 7%, a percent change in binding activity [6] of 7% and a % changes in binding activity [7] of 34%. The percent change in binding activity [8] was 34%, the percent change in binding activity [9] was -24% and the % changes in binding activity [10] was -2%. The percent change in binding activity [11] was 7% and the percent change in binding activity [12] was -16%.

In the case of “SPYGRC-biotin (peptide; other documents disagree on this pair)”, the % binding relative to fetuin [13] is reported as 122%, the % binding relative to fetuin [14] is reported as 97% and the % binding relative to fetuin [15] is reported as 103%. It also gave a % binding relative to fetuin [16] of 120% and a % binding relative to fetuin [17] of 120%.

With WGA(62-73) (peptide) the percent change in binding activity [18] was -32%, the percent change in binding activity [19] was -3% and the IC50 [20] was 3400 µM. It also gave a percent change in binding activity [21] of -1%, an IC50 [22] of 1500 µM and a percent change in binding activity [23] of -9%.

With VAPGIVIPPKALFTQQGGAYGRC [S3P2] the “Maximal Inhibitory Concentration for Greater than 50% Inhibition (CHO cell clumping)” value (pertussis toxin [24]) was > 300 ng/mL.

For STPGIVIPPQEQITQHGSPYGRC [S2P2], the “Maximal Inhibitory Concentration for Greater than 50% Inhibition (CHO cell clumping)” value (pertussis toxin [24]) was > 300 ng/mL.

For PQEQITQHGSPYGRC (biotinylated at the terminal proline; C-terminal -CO--NH2; acetylated (position not given)) [ACS2P1-biotin], the “% binding relative to fetuin” value (asialofetuin) was 45%, the “% binding relative to fetuin” value (asialoagalactofetuin) was 93% and the “% binding relative to fetuin” value [25] was 94%. For the same molecule, the “% binding relative to fetuin” value [26] was 117%, the “% binding relative to fetuin” value [27] was 84% and the “% binding relative to fetuin” value [28] was 70%. For the same molecule, the “% binding relative to fetuin” value [29] was 84%.

RLLASTNSRLCAVFVRDG [S3P9a] was tested, and the “Maximal Inhibitory Concentration for Greater than 50% Inhibition (CHO cell clumping)” value (pertussis toxin [24]) was > 300 ng/mL.

PQEQITQHGSPYGRC (also: acetylated, site not given here) [ACS2P1] gave an IC50 (fetuin [30]) of 3250 µM and an IC50 (fetuin [31]) of 4.1 µM.

In the case of B1, the IC50 (pertussis toxin [32]) is reported as 50 µM.

For PKALFTQQGGAYGRC [S3P1], the “Maximal Inhibitory Concentration for Greater than 50% Inhibition (CHO cell clumping)” value (pertussis toxin [24]) was > 300 ng/mL.
